“And” between values parts separate entries of the source, which are not always exact repeats. Equal entries are not always repeated.

This is an account of results in patent EP2360247A1.

Holding throughout (assay): cell-based or functional assay
For assay [1], the target named is subtilisin 309 variant L217LP+S99SD+S99A (B. Lentus) (UniProt P29600).
Assay [2] concerns the target Savinase® (subtilisin 309, BLSAVI) (B. Lentus) (UniProt P29600).
For assay [3], the target named is subtilisin 309 variant S99SD+S99A+N155NR (B. Lentus) (UniProt P29600).
The target of assay [4] is subtilisin 309 variant S99SD+S99A+S216SDP (B. Lentus) (UniProt P29600).
The target of assay [5] is subtilisin 309 variant S99D+S101R+S103A+V104I+G160S+A194P+V199M+V205I+*216aD (B. Lentus) (UniProt P29600).
For assay [6], the target named is subtilisin 309 variant L42LN (B. Lentus) (UniProt P29600).
The target in assay [7] is subtilisin 309 variant S99SD+S99A+N155ND (B. Lentus) (UniProt P29600).
Assay [8] addresses subtilisin 309 variant S99D+S101R+S103A+V104I+G160S+A194P+V199M+V205I+*216aE (B. Lentus) (UniProt P29600).
The target of assay [9] is subtilisin 309 variant S99SD+S99A+N155NA (B. Lentus) (UniProt P29600).

As to “trypsin inhibitor type IV-0 (Sigma T-1886) (from UniProt P10184 69-517)”, the Residual Activity (%) in assay [1] was 97%; in assay [2], less than 5%; in assay [3], 6.5%; in assay [4], 35%; in [5], 24%; in [6], 69.2%. The Residual Activity (%) is 10.7% and 7.1% in assay [7]; 25.4% in assay [8]; 7.4% in assay [9].
